Where two headings read alike, the source gives them in different places. Starred links: 1 amine or outer side, 2 acyl side, 3 side chain; linkers in the order of their positions; H or OH if unused. Positions of bridges follow the written chain, without caps; N, C: chain ends. Non-standard residues stand in square brackets, D forms with d. Residues, ends and D or L forms follow the SMILES beside them. Groups on a side chain read outwards from the residue. *: point of attachment. Trp(1-Me) = Cn1cc(C[C@H](N)C(=O)O)c2ccccc21; C18 diacid = O=C(O)CCCCCCCCCCCCCCCCC(=O)*; γGlu = O=C(O)[C@H](CCC(=O)[*:2])N[*:1]; NMeI = CC[C@H](C)[C@H](NC)C(=O)O; β3hI = CC[C@H](C)[C@H](N)CC(=O)O; Nle = CCCC[C@H](N)C(=O)O; Nva = CCC[C@H](N)C(=O)O; Sar = CNCC(=O)O
B1: Ac-IC(1)XWQDWGEHRC(1)T-NH2 with Norvaline at position 3 (peptide)
peptide: Ac-IC[Nva]WQDWGEHRCT-NH2
modifications: disulfide 2-12
SMILES: CCC[C@@H]1NC(=O)[C@@H](NC(=O)[C@@H](NC(C)=O)[C@@H](C)CC)CSSC[C@@H](C(=O)N[C@H](C(N)=O)[C@@H](C)O)NC(=O)[C@H](CCCNC(=N)N)NC(=O)[C@H](Cc2c[nH]cn2)NC(=O)[C@H](CCC(=O)O)NC(=O)CNC(=O)[C@H](Cc2c[nH]c3ccccc23)NC(=O)[C@H](CC(=O)O)NC(=O)[C@H](CCC(N)=O)NC(=O)[C@H](Cc2c[nH]c3ccccc23)NC1=O
B2: Ac-IC(1)XWQDWGEHRC(1)T-NH2 with Norleucine at position 3 (peptide)
peptide: Ac-IC[Nle]WQDWGEHRCT-NH2
modifications: disulfide 2-12
SMILES: CCCC[C@@H]1NC(=O)[C@@H](NC(=O)[C@@H](NC(C)=O)[C@@H](C)CC)CSSC[C@@H](C(=O)N[C@H](C(N)=O)[C@@H](C)O)NC(=O)[C@H](CCCNC(=N)N)NC(=O)[C@H](Cc2c[nH]cn2)NC(=O)[C@H](CCC(=O)O)NC(=O)CNC(=O)[C@H](Cc2c[nH]c3ccccc23)NC(=O)[C@H](CC(=O)O)NC(=O)[C@H](CCC(N)=O)NC(=O)[C@H](Cc2c[nH]c3ccccc23)NC1=O
B3: Compound 2 (peptide)
peptide: Ac-ICIWQDWGEHRCT-NH2
modifications: disulfide 2-12
SMILES: CC[C@H](C)[C@H](NC(C)=O)C(=O)N[C@H]1CSSC[C@@H](C(=O)N[C@H](C(N)=O)[C@@H](C)O)NC(=O)[C@H](CCCNC(=N)N)NC(=O)[C@H](Cc2c[nH]cn2)NC(=O)[C@H](CCC(=O)O)NC(=O)CNC(=O)[C@H](Cc2c[nH]c3ccccc23)NC(=O)[C@H](CC(=O)O)NC(=O)[C@H](CCC(N)=O)NC(=O)[C@H](Cc2c[nH]c3ccccc23)NC(=O)[C@H]([C@@H](C)CC)NC1=O
B4: Compound 21 (peptide)
peptide: Ac-ICIWQDWGEHRCS-NH2
modifications: disulfide 2-12
SMILES: CC[C@H](C)[C@H](NC(C)=O)C(=O)N[C@H]1CSSC[C@@H](C(=O)N[C@@H](CO)C(N)=O)NC(=O)[C@H](CCCNC(=N)N)NC(=O)[C@H](Cc2c[nH]cn2)NC(=O)[C@H](CCC(=O)O)NC(=O)CNC(=O)[C@H](Cc2c[nH]c3ccccc23)NC(=O)[C@H](CC(=O)O)NC(=O)[C@H](CCC(N)=O)NC(=O)[C@H](Cc2c[nH]c3ccccc23)NC(=O)[C@H]([C@@H](C)CC)NC1=O
B5: Compound G (peptide)
peptide: Ac-ICVWQDWGEHRCS-NH2
modifications: disulfide 2-12
SMILES: CC[C@H](C)[C@H](NC(C)=O)C(=O)N[C@H]1CSSC[C@@H](C(=O)N[C@@H](CO)C(N)=O)NC(=O)[C@H](CCCNC(=N)N)NC(=O)[C@H](Cc2c[nH]cn2)NC(=O)[C@H](CCC(=O)O)NC(=O)CNC(=O)[C@H](Cc2c[nH]c3ccccc23)NC(=O)[C@H](CC(=O)O)NC(=O)[C@H](CCC(N)=O)NC(=O)[C@H](Cc2c[nH]c3ccccc23)NC(=O)[C@H](C(C)C)NC1=O
B6: Compound A (peptide)
peptide: Ac-ICVWQDWGEHRCT-NH2
modifications: disulfide 2-12
SMILES: CC[C@H](C)[C@H](NC(C)=O)C(=O)N[C@H]1CSSC[C@@H](C(=O)N[C@H](C(N)=O)[C@@H](C)O)NC(=O)[C@H](CCCNC(=N)N)NC(=O)[C@H](Cc2c[nH]cn2)NC(=O)[C@H](CCC(=O)O)NC(=O)CNC(=O)[C@H](Cc2c[nH]c3ccccc23)NC(=O)[C@H](CC(=O)O)NC(=O)[C@H](CCC(N)=O)NC(=O)[C@H](Cc2c[nH]c3ccccc23)NC(=O)[C@H](C(C)C)NC1=O
B7: Compound 48 (peptide)
peptide: H-[dY]ICI[Trp(1-Me)]QDW[Sar]AHRC[NMeI]-NH2
modifications: disulfide 3-13
SMILES: CC[C@H](C)[C@H](NC(=O)[C@H](N)Cc1ccc(O)cc1)C(=O)N[C@H]1CSSC[C@@H](C(=O)N(C)[C@H](C(N)=O)[C@@H](C)CC)NC(=O)[C@H](CCCNC(=N)N)NC(=O)[C@H](Cc2c[nH]cn2)NC(=O)[C@H](C)NC(=O)CN(C)C(=O)[C@H](Cc2c[nH]c3ccccc23)NC(=O)[C@H](CC(=O)O)NC(=O)[C@H](CCC(N)=O)NC(=O)[C@H](Cc2cn(C)c3ccccc23)NC(=O)[C@H]([C@@H](C)CC)NC1=O
B8: Compound 15 (peptide)
peptide: Ac-ICIWQDWGEHRCTGAES-NH2
modifications: disulfide 2-12
SMILES: CC[C@H](C)[C@H](NC(C)=O)C(=O)N[C@H]1CSSC[C@@H](C(=O)N[C@H](C(=O)NCC(=O)N[C@@H](C)C(=O)N[C@@H](CCC(=O)O)C(=O)N[C@@H](CO)C(N)=O)[C@@H](C)O)NC(=O)[C@H](CCCNC(=N)N)NC(=O)[C@H](Cc2c[nH]cn2)NC(=O)[C@H](CCC(=O)O)NC(=O)CNC(=O)[C@H](Cc2c[nH]c3ccccc23)NC(=O)[C@H](CC(=O)O)NC(=O)[C@H](CCC(N)=O)NC(=O)[C@H](Cc2c[nH]c3ccccc23)NC(=O)[C@H]([C@@H](C)CC)NC1=O
B9: Compound D (peptide)
peptide: Ac-ICVWQDWGEHRCTGAES-NH2
modifications: disulfide 2-12
SMILES: CC[C@H](C)[C@H](NC(C)=O)C(=O)N[C@H]1CSSC[C@@H](C(=O)N[C@H](C(=O)NCC(=O)N[C@@H](C)C(=O)N[C@@H](CCC(=O)O)C(=O)N[C@@H](CO)C(N)=O)[C@@H](C)O)NC(=O)[C@H](CCCNC(=N)N)NC(=O)[C@H](Cc2c[nH]cn2)NC(=O)[C@H](CCC(=O)O)NC(=O)CNC(=O)[C@H](Cc2c[nH]c3ccccc23)NC(=O)[C@H](CC(=O)O)NC(=O)[C@H](CCC(N)=O)NC(=O)[C@H](Cc2c[nH]c3ccccc23)NC(=O)[C@H](C(C)C)NC1=O

Columns and labels:
[1] = system: classical complement pathway; test: In vitro haemolysis assay (inhibition of classical complement pathway); format: cell-based, human; conditions: human serum, sensitized sheep red blood cells; Table 3, given as upper bounds; read-out: IC50, inhibition of hemolysis
Procedure, shortened: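 Compound dilutions preincubated 15 min at room temperature with diluted human serum (titrated per batch for 70-90% maximal haemolysis), then antibody-sensitized sheep RBC (10^7/well) added for 30 min at 37 °C in Tris/casein buffer, pH 7.4. Stopped with EDTA; haemolysis read at 405 nm; IC50 by 4PL fit.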

[2] = Pharmacokinetic half-life in non-human primates (serum, LC-MS/MS); format: in vivo, Cynomolgus monkeys (Macaca fascicularis); conditions: male, cynomolgus monkey, sc, NHP, single subcutaneous dose 1840 nmol/kg, * = approximate determination
Description: Healthy male Cynomolgus monkeys (Macaca fascicularis) received single subcutaneous administrations of each test substance. Compounds were formulated in 20 mM phosphate adjusted with NaOH to pH 7.5 and mannitol for isotonicity and dosed at 1840 nmol/kg. Blood was collected from a femoral vein from each animal at the following times: Pre-dose, 1, 2, 4, 8, 24, 48, 72, 96 and 120 h (10 sampling times). Blood was collected into serum separation tubes and allowed to clot at room temperature. The tubes were centrifuged and resulting serum was aliquoted and snap-frozen over dry-ice and stored at nominally −80° C. until analysis. All NHP studies were performed in accordance with animal welfare laws and regulations, including approval of the study by a local ethical review process.
In order to assess pharmacokinetic half-life (t ½), serum samples isolated from non-human primates at specific time points after dosing were analysed for total drug compound after sample preparation by solid phase extraction (SPE) and liquid chromatography mass spectrometry (LC-MS/MS) using analogue internal standard. Single measurement of serum concentrations were used for calculation of the pharmacokinetic parameters using the non-compartmental approach in Phoenix WinNonlin 6.3. Plasma terminal elimination half-life (t½) was determined as In(2)/λz where λz is the magnitude of the slope of the log linear regression of the log concentration versus time profile during the terminal phase.

[3] = biological target: T1, Human C3 (Complement tech cat #A113c) (human, UniProt P01024 23-1663); test: cell-based or functional assay
T1 sequence (P01024 23-1663 limits assumed): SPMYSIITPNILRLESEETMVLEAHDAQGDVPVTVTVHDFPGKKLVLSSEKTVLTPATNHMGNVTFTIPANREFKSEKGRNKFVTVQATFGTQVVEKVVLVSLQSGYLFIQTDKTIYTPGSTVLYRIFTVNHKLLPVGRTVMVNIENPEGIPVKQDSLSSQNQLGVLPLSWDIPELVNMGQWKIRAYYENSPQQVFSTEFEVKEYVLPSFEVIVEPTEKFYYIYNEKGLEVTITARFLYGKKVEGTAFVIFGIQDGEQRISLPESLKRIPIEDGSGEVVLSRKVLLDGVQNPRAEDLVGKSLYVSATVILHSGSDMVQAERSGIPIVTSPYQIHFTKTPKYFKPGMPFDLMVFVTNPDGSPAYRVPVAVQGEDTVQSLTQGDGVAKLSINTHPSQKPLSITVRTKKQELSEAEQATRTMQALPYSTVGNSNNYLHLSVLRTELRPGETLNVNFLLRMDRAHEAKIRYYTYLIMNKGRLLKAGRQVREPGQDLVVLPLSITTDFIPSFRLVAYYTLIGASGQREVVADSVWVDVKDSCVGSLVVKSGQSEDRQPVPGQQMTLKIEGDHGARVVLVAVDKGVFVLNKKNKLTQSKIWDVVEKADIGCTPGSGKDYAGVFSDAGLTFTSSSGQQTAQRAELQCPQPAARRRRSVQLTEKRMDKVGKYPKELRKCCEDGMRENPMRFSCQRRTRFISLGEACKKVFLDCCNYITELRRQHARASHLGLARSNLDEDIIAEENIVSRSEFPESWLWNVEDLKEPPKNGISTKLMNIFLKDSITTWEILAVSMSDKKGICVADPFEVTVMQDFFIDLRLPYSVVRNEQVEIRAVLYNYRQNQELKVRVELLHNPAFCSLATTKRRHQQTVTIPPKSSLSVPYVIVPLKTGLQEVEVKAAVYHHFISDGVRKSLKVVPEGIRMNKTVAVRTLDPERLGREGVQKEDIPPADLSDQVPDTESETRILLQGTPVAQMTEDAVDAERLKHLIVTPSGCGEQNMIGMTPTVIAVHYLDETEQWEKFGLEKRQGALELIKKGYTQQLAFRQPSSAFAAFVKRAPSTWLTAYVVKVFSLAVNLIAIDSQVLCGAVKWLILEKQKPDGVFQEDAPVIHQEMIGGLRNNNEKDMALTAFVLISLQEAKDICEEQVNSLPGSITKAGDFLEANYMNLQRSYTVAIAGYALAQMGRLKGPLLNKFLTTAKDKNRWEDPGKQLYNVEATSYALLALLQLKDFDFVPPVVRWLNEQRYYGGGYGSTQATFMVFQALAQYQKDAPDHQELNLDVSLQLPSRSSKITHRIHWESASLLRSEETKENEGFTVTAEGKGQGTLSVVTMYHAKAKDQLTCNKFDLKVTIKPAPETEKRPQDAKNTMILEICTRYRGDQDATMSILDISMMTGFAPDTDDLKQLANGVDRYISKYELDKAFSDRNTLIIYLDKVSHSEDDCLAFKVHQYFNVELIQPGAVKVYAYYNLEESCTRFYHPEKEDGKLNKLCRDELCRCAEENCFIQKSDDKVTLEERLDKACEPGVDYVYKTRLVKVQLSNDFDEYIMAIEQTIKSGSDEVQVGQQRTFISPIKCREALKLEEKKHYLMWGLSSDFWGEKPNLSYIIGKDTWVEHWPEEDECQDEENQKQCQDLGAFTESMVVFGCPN

[4] = biological target: T1, Human C3 (Complement tech cat #A113c); test: cell-based or functional assay; remark: listed apart in the source
[5] = biological target: T1, Human C3 (Complement tech cat #A113c); test: SPR (Biacore T200), human C3 immobilised, peptide injected, 1:1 fit
Description: Surface plasmon resonance (SPR) was used to characterize peptides with respect to their binding affinity (Kd) for C3. Human C3 (Complement tech cat #A113c) was immobilised on individual flow cells of CM5 sensor chips (GE Healthcare) using standard amine coupling to a density of approximately 3000 resonance units (RU) in a buffer consisting of 10 mM phosphate pH 7.4, 150 mM NaCl, 0.05% Tween20.
For interaction experiments a multi-cycle experiment approach was used and performed using a BiacoreT200™ instrument (GE Healthcare) at 25° C. Peptides were injected in increasing concentration series (6-8 different concentrations) for 60-120 sat a flow rate of 30 µL/min in a buffer consisting of 10 mM Tris buffer at pH 7.4, with 150 mM NaCl and 0.05% Tween20. This was followed by a dissociation period for up to 10 min. The C3 surface was regenerated between runs by a 45 s injection of 3 M MgCl_2.

[6] = biological target: T1, Human C3 (Complement tech cat #A113c); test: cell-based or functional assay; remark: listed apart in the source
[7] = biological target: T1, Human C3 (Complement tech cat #A113c); test: SPR (Biacore T200), human C3 immobilised, peptide injected, 1:1 fit; remark: listed apart in the source
Procedure, shortened: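 Human C3 amine-coupled on CM5 chips to about 3000 RU. Multi-cycle runs on Biacore T200 at 25° C: peptides at 6-8 rising concentrations, 60-120 s at 30 µL/min in 10 mM Tris pH 7.4, 150 mM NaCl, 0.05% Tween20, dissociation up to 10 min; 3 M MgCl2 regeneration. Kd derived.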

Row | Molecule | IC50 [1] [nM] | half-life [2] [h] | IC50, CP hemolysis [3] [nM] | inhibition of hemolysis IC50 [4] [nM] | Kd [5] [nM] | CP hemolysis IC50 [6] [nM] | Kd [7] [nM]
1 | CC[C@H](C)[C@@H]1NC(=O)[C@@H](NC(=O)[C@H](Cc2ccc(O)cc2)NC(=O)[C@H](C)NC(=O)[C@H](CO)NC(C)=O)CSSC[C@@H](C(=O)N(C)CC(=O)N[C@@H](CCC(=O)O)C(=O)N[C@@H](CCCCNC(=O)CC[C@H](NC(=O)CNC(=O)CC[C@H](NC(=O)CCCCCCCCCCCCCCCCC(=O)O)C(=O)O)C(=O)O)C(N)=O)NC(=O)[C@H](CCCNC(=N)N)NC(=O)[C@H](Cc2c[nH]cn2)NC(=O)[C@H](CCC(=O)O)NC(=O)CNC(=O)[C@H](Cc2c[nH]c3ccccc23)NC(=O)[C@H](CC(=O)O)NC(=O)[C@H](CCC(N)=O)NC(=O)[C@H](Cc2cn(C)c3ccccc23)NC1=O [Compound 106] (Ac-SAYCI[Trp(1-Me)]QDWGEHRC[Sar]EK([γGlu-Gly-γGlu-C18 diacid])-NH2; disulfide 4-14) | < 250 | ~93.9 |  |  |  |  | 
2 | Ac-IC[β3hI]WQDWGEHRCT-NH2 (disulfide 2-12) [Ac-IC(1)XWQDWGEHRC(1)T-NH2 with Beta-Homo-Isoleucine at position 3] |  |  | > 10000 |  |  |  | 
3 | B1 |  |  | > 1000 |  |  |  | 
4 | B2 |  |  | 480 |  |  |  | 
5 | B3 |  |  | < 100 | < 100 | 16 | 94 | 16
6 | B4 |  |  |  | < 100 | 16 | 77 | 16
7 | B5 |  |  |  |  | 160 | 180 | 
8 | B6 |  |  | 350 |  | 130 | 350 | 
9 | B7 |  |  |  | < 100 | 0.12 |  | 0.12
10 | B8 |  |  |  | < 100 | 14 | 47 | 14
11 | B9 |  |  |  |  | 230 | 210 | 

— US11965039B2, “Compstatin analogues and their medical uses” (priority 2018, dated 2024)
